Reference: article PMC4470285, “A cell cycle-controlled redox switch regulates the topoisomerase IV activity” (Genes & Development, 2015)

Legend:
[1] = target: NstA(C8Y)-GFP (C. crescentus); test: non-reducing SDS-PAGE with immunoblot; GFP fusions expressed from the xylX locus in C. crescentus; reducing against non-reducing SDS-PAGE; disulfide-linked dimer; also synchronized cells at 0 and 60 min
[2] = target: NstA-seGFP (C. crescentus); test: not stated; cells overproducing NstA-seGFP, with or without 7.5 uM NEM (Supplemental Fig. S11B)
[3] = target: the molecule itself; test: non-reducing SDS-PAGE with immunoblot; GFP fusions expressed from the xylX locus in C. crescentus; reducing against non-reducing SDS-PAGE; disulfide-linked dimer; also synchronized cells at 0 and 60 min

Q: Which stoichiometry N [1] does the source give for NstA(C8Y)-GFP (natural protein) here?
A: 2

Q: With NstA-seGFP (natural protein) as the molecule, how does the stoichiometry N [2] read?
A: 2

B1: NstA-GFP (natural protein, C. crescentus, UniProt A0A0H3CC90 1-66, looked up)
chain: MQVFTFFCVESDGSVPRFDVTPCADDAAARVRAFELLDMHHRCDFVEVWRGAQRVFDVFAQQVAAA
notes: NstA (CCNA_03091), C. crescentus, predicted protein of 66 residues; also called functional C-terminal GFP version of wild-type NstA; xylX::Pxyl-nstA-gfp; source: wild-type C. crescentus, expressed from the xylX locus on the chromosome, in lysate; not shown: GFP, C-terminal, kept
Q: For B1, which “stoichiometry N” value [3] is on record?
A: 2
